Data published in patent US20070254313A1, “Gnal Splice Variant and Uses Thereof” (AstraZeneca AB, priority 2003, published 2007).

Assays:
Test in all cases: cell-based or functional assay
[1] = molecular target: human β2 adrenergic receptor (human) (UniProt P07550)
[2] = molecular target: human adenosine A2a receptor (ADORA2A) (human) (UniProt P29274)
[3] = molecular target: human dopamine D1A receptor (human) (UniProt P21728)
human dopamine D1A receptor (human), sequence (P21728 whole entry): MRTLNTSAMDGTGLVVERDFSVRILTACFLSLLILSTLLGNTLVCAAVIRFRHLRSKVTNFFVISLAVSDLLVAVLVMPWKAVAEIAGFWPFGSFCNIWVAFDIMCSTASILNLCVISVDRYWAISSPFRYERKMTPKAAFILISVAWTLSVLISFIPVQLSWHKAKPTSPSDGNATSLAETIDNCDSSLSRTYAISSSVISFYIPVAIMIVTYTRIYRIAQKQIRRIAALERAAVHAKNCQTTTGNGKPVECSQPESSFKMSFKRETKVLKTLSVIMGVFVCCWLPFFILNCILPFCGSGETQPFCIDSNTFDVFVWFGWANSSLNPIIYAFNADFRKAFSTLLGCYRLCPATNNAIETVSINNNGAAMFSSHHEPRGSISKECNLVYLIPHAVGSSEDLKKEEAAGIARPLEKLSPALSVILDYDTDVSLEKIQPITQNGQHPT

human adenosine A2a receptor (ADORA2A) (human), sequence (P29274 whole entry): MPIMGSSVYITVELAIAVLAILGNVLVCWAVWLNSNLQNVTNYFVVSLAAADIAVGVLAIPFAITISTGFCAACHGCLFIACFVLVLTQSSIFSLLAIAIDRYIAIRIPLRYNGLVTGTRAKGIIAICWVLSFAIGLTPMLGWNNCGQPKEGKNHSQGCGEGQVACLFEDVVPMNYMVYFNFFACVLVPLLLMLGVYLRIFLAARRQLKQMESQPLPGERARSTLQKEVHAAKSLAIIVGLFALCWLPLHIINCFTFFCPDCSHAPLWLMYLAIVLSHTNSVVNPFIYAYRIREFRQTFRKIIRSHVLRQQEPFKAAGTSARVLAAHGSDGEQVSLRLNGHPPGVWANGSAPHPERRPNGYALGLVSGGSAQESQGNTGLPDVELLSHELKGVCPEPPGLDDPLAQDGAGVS

B1: human XLGolf protein (protein)
chain: MGLCYSLRPLLFGGPGDDPCAASEPPVEDAQPAPAPALAPVRAAARDTARTLLPRGGEGSPACARPKADKPKEKRQRTEQLSAEEREAAKEREAVKEARKVSRGIDRMLRDQKRDLQQTHRLLLLGAGESGKSTIVKQMRILHVNGFNPEEKKQKILDIRKNVKDAIVTIVSAMSTIIPPVPLANPENQFRSDYIKSIAPITDFEYSQEFFDHVKKLWDDEGVKACFERSNEYQLIDCAQYFLERIDSVSLVDYTPTDQDLLRCRVLTSGIFETRFQVDKVNFHMFDVGGQRDERRKWIQCFNDVTAIIYVAACSSYNMVIREDNNTNRLRESLDLFESIWNNRWLRTISIILFLNKQDMLAEKVLAGKSKIEDYFPEYANYTVPEDATPDAGEDPKVTRAKFFIRDLFLRISTATGDGKHYCYPHFTCAVDTENIRRVFNDCRDIIQRMHLKQYELL
Binder B1 has a magnitude of (-)-isoproterenol-induced GTPγS binding above the baseline, membranes of Sf9 cells expressing β2 receptor and XLGolf (% above the baseline) [1] of 700, an induction of GTPγS agonist signal over baseline, A2a receptor co-expressed with XLGolf in Sf9 cells [2] of 3 fold and an efficacy (Emax) of dopamine-induced [35S]-GTPγS binding, membranes of Sf9 cells co-expressing DRD1 and XLGolf [3] of 404%.
